Data reported in patent US20050119205A1, “Methods of modulating heme oxygenase-1 expression and treating heme oxygenase-1 mediated conditions” (published 2005).

Experiments:
[1] = target: T1, heme oxygenase-1 (hHO-1), E. coli expressed (Homo sapiens, UniProt P09601 P09601:1-288); assay: EMSA; specificity control; details: label: 32P 5'
T1 sequence: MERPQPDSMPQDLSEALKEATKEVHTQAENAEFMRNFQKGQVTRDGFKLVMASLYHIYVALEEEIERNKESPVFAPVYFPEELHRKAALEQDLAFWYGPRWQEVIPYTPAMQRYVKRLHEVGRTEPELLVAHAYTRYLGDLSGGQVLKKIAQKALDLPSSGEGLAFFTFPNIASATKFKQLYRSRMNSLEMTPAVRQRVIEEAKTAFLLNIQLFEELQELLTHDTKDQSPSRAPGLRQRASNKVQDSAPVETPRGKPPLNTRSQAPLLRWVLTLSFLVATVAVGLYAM

hBVR L157A = target: T2, hBVR L157A (Homo sapiens, UniProt P53004 SEQ:1-296, L157A); assay: EMSA; background signal only; details: tags: rabbit reticulocyte lysate; chain copies: 2; label: 32P 5'
T2 sequence: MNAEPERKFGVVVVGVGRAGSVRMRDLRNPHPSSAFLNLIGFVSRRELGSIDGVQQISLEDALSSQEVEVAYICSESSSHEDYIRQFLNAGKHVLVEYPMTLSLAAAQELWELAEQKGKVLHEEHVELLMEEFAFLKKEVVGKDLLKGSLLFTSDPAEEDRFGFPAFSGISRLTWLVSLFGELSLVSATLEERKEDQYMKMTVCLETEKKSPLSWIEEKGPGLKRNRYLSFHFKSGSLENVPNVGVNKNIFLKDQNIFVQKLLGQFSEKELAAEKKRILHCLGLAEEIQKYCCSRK
Protocol: (§1) As with native gel analysis, in vitro translated proteins were assayed for DNA binding immediately after synthesis. 1 μl of translated material was added to 5000-500,000 cpm of [³²P]-labeled DNA fragment representing approximately 2-3 ng of DNA. 0.1 μg of poly (dI•dC) in 10 μl of DNA binding buffer was added to the labeled DNA. After incubating samples for 20 min at room temperature, 5 μl loading buffer was added. The samples were resolved on 12% native polyacrylamide gel with 35 m Amp at 4° C. The gels were processed as described above. Dried gels were put on two pieces of film separated by a piece of paper. Autoradiography was done at −70° C. for different time periods.
(§2) For this set of experiments, the [³⁵S] methionine-labeled mutant BVR proteins were generated by in vitro translation and assayed on a 12% native gel for detection of the ˜69 kDa protein band and analysis of DNA for complex formation. The 100-mer DNA fragment with two AP-1 sites or without an AP-1 site were used. On the native gel the high molecular weight band was not detected with the mutated proteins.

hBVR K143A = target: T3, hBVR K143A (Homo sapiens, UniProt P53004 SEQ:1-296, K143A); assay: EMSA; background signal only; details: tags: rabbit reticulocyte lysate; chain copies: 2; label: 32P 5'
T3 sequence: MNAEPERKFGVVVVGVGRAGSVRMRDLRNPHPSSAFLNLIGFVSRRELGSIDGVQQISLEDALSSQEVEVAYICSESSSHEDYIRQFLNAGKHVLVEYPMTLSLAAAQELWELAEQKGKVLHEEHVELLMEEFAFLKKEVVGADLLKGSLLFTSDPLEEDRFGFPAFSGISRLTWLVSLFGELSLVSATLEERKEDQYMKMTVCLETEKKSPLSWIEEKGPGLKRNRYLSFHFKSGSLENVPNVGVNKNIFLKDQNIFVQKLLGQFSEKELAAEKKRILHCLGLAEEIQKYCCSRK
Protocol: as §1, §2

hBVR L150A = target: T4, hBVR L150A (Homo sapiens, UniProt P53004 SEQ:1-296, L150A); assay: EMSA; background signal only; details: tags: rabbit reticulocyte lysate; chain copies: 2; label: 32P 5'
T4 sequence: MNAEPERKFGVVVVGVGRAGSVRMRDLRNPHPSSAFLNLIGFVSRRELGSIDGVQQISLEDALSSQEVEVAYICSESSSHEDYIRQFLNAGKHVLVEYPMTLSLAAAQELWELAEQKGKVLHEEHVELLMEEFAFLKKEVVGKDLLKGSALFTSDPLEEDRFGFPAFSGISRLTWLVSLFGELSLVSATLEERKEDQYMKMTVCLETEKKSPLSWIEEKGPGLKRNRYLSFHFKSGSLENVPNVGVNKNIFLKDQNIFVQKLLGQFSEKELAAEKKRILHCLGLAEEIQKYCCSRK
Protocol: as §1, §2

Measured: binding result

B1: 100-mer, zero AP-1 sites (OL.625/OL.626) (dsDNA)
DNA 1: TCCTCAGCTGCTTTTATGCGATCCTCTGGTTGGGAGGGGTGATTAGCAGACAAAGGGAAGACAGATTTTGCGATCCTCCCCTCTGTTCCCTCTGCCTCAG
DNA 2: CTGAGGCAGAGGGAACAGAGGGGAGGATCGCAAAATCTGTCTTCCCTTTGTCTGCTAATCACCCCTCCCAACCAGAGGATCGCATAAAAGCAGCTGAGGA
no binding: all assays above
